This is an account of results in EP2130555A1.

Test [1] concerns the target hexahistidine-tagged bacterial gyrase subunit B (GyrB) of E. coli (E. coli) (UniProt P0AES6). Put plainly: cell-based or functional assay.
Test [2] shares this target. Put plainly: ultrafiltration through a 50 kDa cut-off filter, without coumermycin (monomer passes the filter).
For test [3] the target is unchanged. Put plainly: ultrafiltration through a 50 kDa cut-off filter, with coumermycin (GyrB : coumermycin = 2:1; dimer is held back).

Regarding “hexahistidine-tagged bacterial gyrase subunit B (GyrB) of E. coli (from UniProt P0AES6 1-220) (enzyme)”, in test [1], the hydrogel dissolution in PBS with 1 mM novobiocin, followed by release of GyrB-polymer complexes into the buffer turned out to be 11 h and the stability of hydrogels with DMS-crosslinked GyrB dimers in PBS with 1 mM novobiocin amounted to 31 h. Besides, the % of protein in filtrate in test [2] is 54%. In test [3], the % of protein in filtrate was determined as 2.8%.
